Data: publication PMC10589216, “Lactate dehydrogenase D is a general dehydrogenase for D-2-hydroxyacids and is associated with D-lactic acidosis” (Nature Communications, 2023)
Numbering of substitutions follows the chain as printed.

Tests used:
mLDHD [1] = molecular target: T1, mLDHD (Mus musculus, UniProt Q7TNG8); test: X-ray crystal structure, […] Å; assay type: binding; settings: non-covalently bound, co-purified from expression host
T1 construct: gene Ldhd
T1 sequence (Q7TNG8 22-484): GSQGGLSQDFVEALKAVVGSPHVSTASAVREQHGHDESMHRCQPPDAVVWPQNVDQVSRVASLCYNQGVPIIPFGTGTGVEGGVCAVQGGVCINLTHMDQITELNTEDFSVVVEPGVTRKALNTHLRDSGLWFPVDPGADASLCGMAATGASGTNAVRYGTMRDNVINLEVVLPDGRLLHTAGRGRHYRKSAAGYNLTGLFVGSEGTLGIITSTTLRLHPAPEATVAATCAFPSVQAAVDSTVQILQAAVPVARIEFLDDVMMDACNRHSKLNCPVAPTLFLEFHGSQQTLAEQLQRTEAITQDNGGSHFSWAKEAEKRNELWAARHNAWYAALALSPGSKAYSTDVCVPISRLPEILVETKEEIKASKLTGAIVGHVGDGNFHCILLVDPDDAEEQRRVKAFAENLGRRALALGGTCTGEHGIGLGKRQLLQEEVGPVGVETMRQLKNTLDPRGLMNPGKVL

mLDHD [2] = molecular target: T2, mLDHD (Mus musculus, UniProt Q7TNG8, H405A); test: X-ray crystal structure (soak); assay type: binding; settings: FAD-bound crystals; no Mn2+ at active site; DL mixture soaked
T2 construct: gene Ldhd
T2 sequence (Q7TNG8 22-484 H405A): T1 sequence (Q7TNG8 22-484) with H384A

purified protein [3] = substrate: C[C@@H](O)C(=O)O; test: purified protein; settings: 50 mM Tris-HCl pH 7.4, 50 μM MnCl2, 200 μM PMS, 100 μM DCIP, 37 °C
purified protein [4] = substrate: CC(C)CC(O)C(=O)O; test: purified protein; assay type: biochemical, Mus musculus; settings: 50 mM Tris-HCl pH 7.4, 50 μM MnCl2, 200 μM PMS, 100 μM DCIP, 37 °C, racemate, KM calculated on D-isomer concentration
purified protein [5] = substrate: CC(C)[C@@H](O)C(=O)O; test: purified protein; assay type: biochemical, Mus musculus; settings: 50 mM Tris-HCl pH 7.4, 50 μM MnCl2, 200 μM PMS, 100 μM DCIP, 37 °C
purified protein [6] = substrate: CCC(C)C(O)C(=O)O; test: purified protein; assay type: biochemical, Mus musculus; settings: 50 mM Tris-HCl pH 7.4, 50 μM MnCl2, 200 μM PMS, 100 μM DCIP, 37 °C
purified protein [7] = substrate: CCCC(O)C(=O)O; test: purified protein; assay type: biochemical, Mus musculus; settings: 50 mM Tris-HCl pH 7.4, 50 μM MnCl2, 200 μM PMS, 100 μM DCIP, 37 °C, racemate, KM calculated on D-isomer concentration
purified protein [8] = substrate: CCCCC(O)C(=O)O; test: purified protein; assay type: biochemical, Mus musculus; settings: 50 mM Tris-HCl pH 7.4, 50 μM MnCl2, 200 μM PMS, 100 μM DCIP, 37 °C
purified protein [9] = substrate: CCCCCCC(O)C(=O)O; test: purified protein; assay type: biochemical, Mus musculus; settings: 50 mM Tris-HCl pH 7.4, 50 μM MnCl2, 200 μM PMS, 100 μM DCIP, 37 °C
purified protein [10] = substrate: CC[C@@H](O)C(=O)O; test: purified protein; assay type: biochemical, Mus musculus; settings: 50 mM Tris-HCl pH 7.4, 50 μM MnCl2, 200 μM PMS, 100 μM DCIP, 37 °C
purified protein [11] = substrate: O=C(O)[C@H](O)Cc1ccccc1; test: purified protein; assay type: biochemical, Mus musculus; settings: 50 mM Tris-HCl pH 7.4, 50 μM MnCl2, 200 μM PMS, 100 μM DCIP, 37 °C

Cc1cc2nc3c(=O)[nH]c(=O)nc-3n(C[C@H](O)[C@H](O)[C@H](O)COP(=O)(O)OP(=O)(O)OC[C@H]3O[C@@H](n4cnc5c(N)ncnc54)[C@H](O)[C@@H]3O)c2cc1C [FAD]
X-ray crystal structure, 1.70 Å (mLDHD [1]): mLDHD in complex with FAD (PDB 8JDC)

CCCCCC[C@@H](O)C(=O)O (mixture of isomers) [D-2-HO, D-2-hydroxyoctanoate]
X-ray crystal structure (soak) (mLDHD [2]): mLDHDH405A in complex with FAD and D-2-hydroxyoctanoate (PDB 8JDB)

CC(C)C[C@@H](O)C(=O)O (mixture of isomers) [D-2-HIC, D-2-hydroxyisocaproate]
X-ray crystal structure (soak) (mLDHD [2]): mLDHDH405A in complex with FAD and D-2-hydroxyisocaproate (PDB 8JDQ)

CCC[C@@H](O)C(=O)O (mixture of isomers) [D-2-HV, D-2-hydroxyvalerate]
X-ray crystal structure (soak) (mLDHD [2]): mLDHDH405A in complex with FAD and D-2-hydroxyvalerate (PDB 8JDN)

B1: mLDHD (Mus musculus) (protein)
chain: T1 sequence (Q7TNG8 22-484)
Km (purified protein [3]): 122.0 ± 4.5 µM
Vmax (purified protein [3]): 1.22 µmol/min/mg
kcat (purified protein [3]): 1.02 s⁻¹
kcat/Km (purified protein [3]): 8330 M⁻¹ s⁻¹
Km (purified protein [4]): 16.4 ± 0.7 µM
Vmax (purified protein [4]): 0.902 µmol/min/mg
kcat (purified protein [4]): 0.752 ± 0.0133 s⁻¹
kcat/Km (purified protein [4]): 45800 M⁻¹ s⁻¹
Km (purified protein [5]): 13.9 ± 1.2 µM
Vmax (purified protein [5]): 1.11 µmol/min/mg
kcat (purified protein [5]): 0.925 ± 0.015 s⁻¹
kcat/Km (purified protein [5]): 66500 M⁻¹ s⁻¹
Km (purified protein [6]): 16.5 ± 0.1 µM
Vmax (purified protein [6]): 1.01 µmol/min/mg
kcat (purified protein [6]): 0.842 ± 0.01 s⁻¹
kcat/Km (purified protein [6]): 51000 M⁻¹ s⁻¹
Km (purified protein [7]): 31.4 ± 2.7 µM
Vmax (purified protein [7]): 1.12 µmol/min/mg
kcat (purified protein [7]): 0.933 ± 0.0183 s⁻¹
kcat/Km (purified protein [7]): 29700 M⁻¹ s⁻¹
Km (purified protein [8]): 34.9 ± 1.6 µM
Vmax (purified protein [8]): 1.48 µmol/min/mg
kcat (purified protein [8]): 1.233 ± 0.0117 s⁻¹
kcat/Km (purified protein [8]): 35300 M⁻¹ s⁻¹
Km (purified protein [9]): 104.0 ± 9.0 µM
Vmax (purified protein [9]): 0.409 µmol/min/mg
kcat (purified protein [9]): 0.342 ± 0.00833 s⁻¹
kcat/Km (purified protein [9]): 3280 M⁻¹ s⁻¹
Km (purified protein [10]): 62.9 ± 2.8 µM
Vmax (purified protein [10]): 1.6 µmol/min/mg
kcat (purified protein [10]): 1.33 ± 0.015 s⁻¹
kcat/Km (purified protein [10]): 21200 M⁻¹ s⁻¹
Km (purified protein [11]): 337.0 ± 44.0 µM
Vmax (purified protein [11]): 0.788 µmol/min/mg
kcat (purified protein [11]): 0.657 ± 0.03 s⁻¹
kcat/Km (purified protein [11]): 1950 M⁻¹ s⁻¹
